From patent publication US6500940 (SALK INSTITUTE FOR BIOLOGICAL STUDIES, dated 2002)

Legend:
human Fas (human) = human Fas (human) (UniProt P25445); assay: cell-based or functional assay
human FADD = biological target: T1, human FADD (human, UniProt Q13158 1-208, limits assumed); assay: co-immunoprecipitation and immunoblot after transient transfection
T1 construct: also called MORT-1
T1 sequence (looked up): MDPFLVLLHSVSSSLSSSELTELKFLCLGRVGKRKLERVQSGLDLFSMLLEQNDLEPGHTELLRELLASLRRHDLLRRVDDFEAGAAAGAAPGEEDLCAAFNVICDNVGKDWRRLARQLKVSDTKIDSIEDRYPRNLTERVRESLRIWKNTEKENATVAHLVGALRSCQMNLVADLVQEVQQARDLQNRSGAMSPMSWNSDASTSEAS
Text: The interaction of LFG with components of the Fas signaling pathway was investigated. Fas and LFG can be co-immunoprecipitated following transient transfection.

Sequence of human Fas (human) (P25445 26-335): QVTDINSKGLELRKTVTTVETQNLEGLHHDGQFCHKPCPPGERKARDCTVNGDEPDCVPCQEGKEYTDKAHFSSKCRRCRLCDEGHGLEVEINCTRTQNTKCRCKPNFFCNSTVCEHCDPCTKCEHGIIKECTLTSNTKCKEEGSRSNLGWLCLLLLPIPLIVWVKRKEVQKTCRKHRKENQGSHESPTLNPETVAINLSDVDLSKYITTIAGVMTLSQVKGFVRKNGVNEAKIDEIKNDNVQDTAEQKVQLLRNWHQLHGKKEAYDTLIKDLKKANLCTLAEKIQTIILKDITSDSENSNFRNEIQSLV

Row | Molecule | cell survival of HeLa cells 72 hr after treatment with CH11 (human Fas (human)) [%] | binding result (human FADD)
1 | mouse anti-human Fas agonistic antibody (CH11) | 17 | –
2 | amino-terminal myc epitope-tagged LFG (myc-LFG) (other, not shown: small tags and cut ends, Expressed from an expression vector by transient transfection (HeLa, 293 cells) and found by immunoprecipitation and immunoblot; also called lifeguard) MTRGKLSVANKAPGTEGQQQVHGEKKEAPAVPSAPPSYEEATSGEGMKAGAFPPAPTAVPLHPSWAYVDPSSSSSYDNGFPPETMSSSPLSAGMTKKVRRVFVRKVYTILLIQLLVTLAVVALFTFCDPCQGLCSGQPGWYWASYAVFFATYLTLACCSGPRRHFPWNLILLTVFTLSMAYLTGMLSSYYNTTSVLLCLGITALVCLSVTVFSFQTKFDFTSCQGVLFVLLMTLFFSGLILAILLPFQYVPWLHAVYAALGAGVFTLFLALDTQLLMGNRRHSLSPEEYIFGALNIYLDIIYIFTFFLQLFGTNRE | – | no binding
